The target of assay [1] is T1, cynomolgus monkey ENPP3 (cynomolgus monkey, UniProt A0A2K5TKP4 46-874).
T1 construct: also called cyno ENPP3
T1 sequence: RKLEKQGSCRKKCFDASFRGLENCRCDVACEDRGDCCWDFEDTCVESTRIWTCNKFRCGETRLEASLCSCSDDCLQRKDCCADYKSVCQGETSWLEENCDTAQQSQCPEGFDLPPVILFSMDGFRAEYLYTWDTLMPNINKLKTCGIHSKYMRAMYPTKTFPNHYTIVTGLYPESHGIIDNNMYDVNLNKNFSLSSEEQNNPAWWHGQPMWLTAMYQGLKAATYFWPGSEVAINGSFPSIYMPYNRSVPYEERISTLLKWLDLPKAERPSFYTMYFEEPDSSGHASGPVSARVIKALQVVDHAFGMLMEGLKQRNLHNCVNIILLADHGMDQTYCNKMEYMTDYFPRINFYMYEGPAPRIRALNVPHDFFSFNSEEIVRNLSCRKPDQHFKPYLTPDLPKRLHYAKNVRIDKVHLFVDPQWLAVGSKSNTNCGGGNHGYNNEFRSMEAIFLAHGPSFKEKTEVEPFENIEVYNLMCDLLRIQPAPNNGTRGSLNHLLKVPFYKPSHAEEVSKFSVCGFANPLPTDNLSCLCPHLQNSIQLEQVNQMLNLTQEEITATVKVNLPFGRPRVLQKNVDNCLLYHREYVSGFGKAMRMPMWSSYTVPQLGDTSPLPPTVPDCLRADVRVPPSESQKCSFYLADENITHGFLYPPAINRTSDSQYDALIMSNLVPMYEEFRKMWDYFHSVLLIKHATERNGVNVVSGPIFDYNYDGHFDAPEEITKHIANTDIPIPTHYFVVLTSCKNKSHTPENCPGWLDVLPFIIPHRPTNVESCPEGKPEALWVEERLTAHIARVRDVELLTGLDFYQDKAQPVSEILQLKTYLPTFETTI
Put plainly: binding affinity to cyno ENPP3; method not stated.

The target in assay [2] is T2, human ENPP3 (human, UniProt O14638 46-875, limits assumed).
T2 construct: neither the construct nor the method is stated; also called ectonucleotide pyrophosphatase/phosphodiesterase family member 3
T2 sequence (looked up): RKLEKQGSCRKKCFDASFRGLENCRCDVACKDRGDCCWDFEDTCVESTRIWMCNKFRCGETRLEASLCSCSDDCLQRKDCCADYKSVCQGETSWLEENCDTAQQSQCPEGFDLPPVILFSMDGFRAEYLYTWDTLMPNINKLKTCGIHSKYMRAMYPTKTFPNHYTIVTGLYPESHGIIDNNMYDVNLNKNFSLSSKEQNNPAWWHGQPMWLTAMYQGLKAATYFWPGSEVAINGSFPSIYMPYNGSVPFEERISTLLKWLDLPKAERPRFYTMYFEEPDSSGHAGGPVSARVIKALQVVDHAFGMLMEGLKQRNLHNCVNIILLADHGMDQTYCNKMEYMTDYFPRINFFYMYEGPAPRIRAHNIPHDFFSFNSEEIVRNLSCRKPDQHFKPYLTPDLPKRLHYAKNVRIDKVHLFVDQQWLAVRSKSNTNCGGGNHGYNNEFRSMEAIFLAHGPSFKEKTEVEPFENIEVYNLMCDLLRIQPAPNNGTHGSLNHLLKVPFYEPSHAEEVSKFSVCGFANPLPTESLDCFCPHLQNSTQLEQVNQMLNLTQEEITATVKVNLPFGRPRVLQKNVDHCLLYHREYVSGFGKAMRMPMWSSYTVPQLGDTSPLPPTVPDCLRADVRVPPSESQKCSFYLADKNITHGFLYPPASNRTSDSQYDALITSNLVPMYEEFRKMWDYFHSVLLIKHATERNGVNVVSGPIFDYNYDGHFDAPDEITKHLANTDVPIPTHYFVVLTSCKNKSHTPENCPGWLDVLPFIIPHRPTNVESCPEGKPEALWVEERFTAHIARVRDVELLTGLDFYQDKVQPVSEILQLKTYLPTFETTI
Kind of assay: binding affinity to human ENPP3; method not stated.

The target in assay [3] is T3, ENPP1 on CHOK1 cells (UniProt P22413 1-925, limits assumed).
T3 construct: whole, on cells; also called ectonucleotide pyrophosphatase/phosphodiesterase family member 1; CHO ENPP1 OE
T3 sequence (looked up): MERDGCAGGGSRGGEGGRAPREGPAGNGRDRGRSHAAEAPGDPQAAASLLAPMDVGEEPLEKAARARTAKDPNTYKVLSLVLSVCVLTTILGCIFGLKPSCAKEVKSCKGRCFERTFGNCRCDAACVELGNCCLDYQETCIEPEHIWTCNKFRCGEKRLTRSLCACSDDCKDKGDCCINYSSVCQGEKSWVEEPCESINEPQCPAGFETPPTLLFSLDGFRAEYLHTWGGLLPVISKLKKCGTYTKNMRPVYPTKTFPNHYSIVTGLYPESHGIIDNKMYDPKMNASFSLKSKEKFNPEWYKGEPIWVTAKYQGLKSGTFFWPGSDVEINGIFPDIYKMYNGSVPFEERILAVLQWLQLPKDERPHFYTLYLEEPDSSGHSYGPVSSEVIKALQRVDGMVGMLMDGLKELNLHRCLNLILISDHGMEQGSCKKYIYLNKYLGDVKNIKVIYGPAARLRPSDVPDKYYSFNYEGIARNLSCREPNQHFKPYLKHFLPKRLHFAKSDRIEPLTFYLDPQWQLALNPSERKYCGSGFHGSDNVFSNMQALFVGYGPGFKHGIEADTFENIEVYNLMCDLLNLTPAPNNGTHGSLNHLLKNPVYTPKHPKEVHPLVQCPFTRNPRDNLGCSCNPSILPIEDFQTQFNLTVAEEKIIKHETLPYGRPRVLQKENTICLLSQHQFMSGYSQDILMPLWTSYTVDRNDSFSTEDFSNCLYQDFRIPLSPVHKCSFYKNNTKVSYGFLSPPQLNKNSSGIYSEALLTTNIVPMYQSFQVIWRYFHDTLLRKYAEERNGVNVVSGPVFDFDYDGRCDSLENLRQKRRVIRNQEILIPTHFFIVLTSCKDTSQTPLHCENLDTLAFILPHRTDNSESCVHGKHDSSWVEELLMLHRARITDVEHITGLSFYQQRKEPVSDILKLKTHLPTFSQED
Kind of assay: flow cytometry on CHO cells overexpressing ENPP1.

The target of assay [4] is ENPP2 on CHOK1 cells (UniProt Q13822 36-863). Put plainly: flow cytometry on CHO cells overexpressing ENPP2.
In assay [5] the target is T4, human ENPP3 on cells (human, UniProt O14638 1-875).
T4 construct: whole, on cells; also called ENPP3 on A704, VMRCRCW, HepG2, TUHR4TKB, TUHR10TKB; CHO-K1 ENPP3 OE
T4 sequence (looked up): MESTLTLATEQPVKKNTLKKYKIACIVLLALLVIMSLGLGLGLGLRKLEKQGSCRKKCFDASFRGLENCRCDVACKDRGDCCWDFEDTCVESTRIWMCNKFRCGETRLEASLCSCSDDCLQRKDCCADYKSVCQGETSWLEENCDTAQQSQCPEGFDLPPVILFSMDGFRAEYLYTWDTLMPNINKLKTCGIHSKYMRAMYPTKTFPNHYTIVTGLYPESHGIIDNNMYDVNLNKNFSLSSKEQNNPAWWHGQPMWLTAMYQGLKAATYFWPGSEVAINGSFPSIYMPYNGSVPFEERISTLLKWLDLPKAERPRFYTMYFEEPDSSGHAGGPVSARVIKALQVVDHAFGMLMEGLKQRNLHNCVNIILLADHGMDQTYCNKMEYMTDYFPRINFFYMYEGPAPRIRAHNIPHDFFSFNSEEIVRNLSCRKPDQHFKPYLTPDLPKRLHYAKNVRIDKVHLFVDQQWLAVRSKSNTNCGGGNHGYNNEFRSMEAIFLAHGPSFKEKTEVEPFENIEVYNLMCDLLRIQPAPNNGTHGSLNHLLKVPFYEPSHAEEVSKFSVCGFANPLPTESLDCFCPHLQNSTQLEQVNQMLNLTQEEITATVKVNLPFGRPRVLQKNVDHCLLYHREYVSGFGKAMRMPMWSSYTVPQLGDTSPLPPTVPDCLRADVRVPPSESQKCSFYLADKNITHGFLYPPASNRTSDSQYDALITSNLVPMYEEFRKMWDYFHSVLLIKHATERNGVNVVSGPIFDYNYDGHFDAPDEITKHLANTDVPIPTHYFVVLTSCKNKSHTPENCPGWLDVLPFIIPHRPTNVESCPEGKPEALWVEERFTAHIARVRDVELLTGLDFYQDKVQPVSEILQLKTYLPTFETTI
Put plainly: flow cytometry on CHO cells overexpressing ENPP3. How it is done:
To evaluate the specificity of binders to ENPP3 compared to other ENPP family members, cell binding was assessed on CHOK1 cells overexpressing ENPP1, ENPP2, or ENPP3 (FIG. 9).

Where a chain is given by its changes, count along the chain named. Numbers in names are those of the source.

B1: NPP3B101 (antibody, V domains shown)
VH: QVQLQESGPGLVKTSETLSLTCTVSGGSISSHYWSWIRQPPGKGLEWIGNIFYSGSTNYNPSLKSRVTMSVDTSKNHFSLKLISVTTADTAIYYCARHDHVWFDPWGQGTLVTVSS
VL: EIVLTQSPGTLSVFPGERATLSCRASQSVSRNLVWYQQKPGQAPRLLIYGASTRATGIPDRFSGSGSGTEFTLTISSLQSEDFAVYYCQQYNNWPPWTFGQGTKVEIK
notes: mAb from Ablexis Kappa mice
With B1, the Kd in assay [1] was 9.58 nM; in assay [2], 0.193 nM.

B2: NPP3B194 (bispecific antibody, IgG1)
VH: EVQLVESGGGRVKPGGSLRLSCAASGFTFSDYSMNWVRQAPGKGLEWVSSISSISSYVKYADSVKGRFTMSRDNAKNSLFLQMNSLRDEDMAVYYCARGHYFDYWGQGTLVTVSS
VL: EIVMTQSPATLSVSPGERATLSCRASQSVSSNLAWYQQKPGLAPRLLIYGASTRATGIPARFSGSGSGTEFTLTISSLQSEDFAVYYCQQYNNWPRTFGQGTKVEIK
scFv: EIVLTQSPATLSASPGERVTLSCSASSSVSYMNWYQQKPGQAPRRWIYDSSKLASGVPARFSGSGSGRDYTLTISSLEPEDFAVYYCQQWSRNPPTFGGGTKVEIKGGSEGKSSGSGSESKSTGGSQVQLVQSGAEVKKPGSSVKVSCKASGYTFTRSTMHWVKQAPGQGLEWIGYINPSSAYTNYNQKFQGRVTLTADKSTSTAYMELSSLRSEDTAVYYCASPQVHYDYAGFPYWGQGTLVTVSS
notes: ENPP3 Fab as VH1-CH1-hinge-CH2-CH3 IgG1 with hole T366S, L368A, Y407V and VL1-CL; scFv in VL-linker-VH-Fc orientation; also called unstapled (scFv) ENPP3×CD3; ScFv version of NPP3B815
Take B2: the binding result in assay [3] and in assay [4] was “no binding (tested: Log(ug/mL) about 1.1 (about 12 ug/mL))” in each case. Besides, the “EC50 (read off the curve)” value in assay [5] is about 0.5 µg/mL.

B3: NPP3B232 (bispecific antibody, IgG1)
VH: QVQLQESGPGLVKPSETLSLTCTVSGGSISNYYWSWIRQPAGKGLEWIGRIYASGSTNYNPSLKSRVTMSVDTSKNQFSLRLRSVTATDTAVYYCAREGYSSTLYDNAFDFWGQGTMVTVSS
VL: DIQMTQSPSSVSASVGGRVTITCRASQGISTWLAWYQQKPGKAPKLLIYAASSLQSGVPSRFSGSGSGTDFTLTISSLQPEDFATYYCQQANSFPLTFGGGTKVEIK
scFv: B2 scFv
notes: Fab-IgG1 (hole) plus scFv-Fc in VL-linker-VH-Fc orientation
Turning to B3, the binding result in assay [3] and in assay [4] was “no binding (tested: Log(ug/mL) about 1.1 (about 12 ug/mL))” each time. In addition, the “EC50 (read off the curve)” value in assay [5] is about 0.5 µg/mL.

B4: NPP3B239 (bispecific antibody, IgG1)
VH: EVQLVESGGGLVKPGGSLRLSCAASGFIFSDYSMNWVRQAPGKGLEWVSSISSGSSYIYYADSLKGRFTISRDNAKNSLYLQMSSLRAEDTAVYYCVRGLDYFDYWGQGALVTVSS
VL: DIQMTQSPSFLSASVGDRVTITCRASQDISNYLAWYQQKPGRAPKLLIYVASTLQSGVPSRFSGSGSGTEFTLTISSLQPEDFATYYCQQLNSYPRTFGQGTKVEIK
scFv: B2 scFv
notes: Fab-IgG1 (hole) plus scFv-Fc in VL-linker-VH-Fc orientation; also called NPP3B239.003
B4: the binding result in assay [3] and in assay [4] was “no binding (tested: Log(ug/mL) about 1.1 (about 12 ug/mL))” each time. In addition, the “EC50 (read off the curve)” value in assay [5] was about 1 µg/mL.

B5: NPP3B61 (antibody, V domains shown)
VH: QVQLQESGPGLVRPSETLSLTCTVSGGSISSYYWSWIRQPAGKGLEWIGRIYTTGRIYTSGYTNYNPSLKSRVTMSIDTSKIQFSLRLNSVTAADTAVYWCARGGELFTDGFDIWGQGTMVTVSS
VL: EIVMTQSPGTLSLSPGERATLSCRASQSVISTYLAWYQQNPGQAPRLLIYGASSRATGIPDRFSGSGSGTDFTLTISRLEPEDFAVYYCQQYDTSPITFGQGTRLEIK
notes: mAb from Ablexis Kappa mice
In the case of B5, the Kd in assay [1] is 109 nM; in assay [2] it was 0.443 nM.

B6: NPP3B62 (antibody, V domains shown)
VH: B5 VH
VL: B5 VL with A85V
notes: mAb from Ablexis Kappa mice
On to B6, for which the values for the Kd in assay [1] and in assay [2] were 12 nM and 0.258 nM, respectively.
